{"source": "the DeepSol protein solubility set", "data": [{"assay": "soluble on expression in E. coli; label from the status in PepcDB or PDB records", "values": [{"sequence": "MAHHHHHHMCAALSPAHFQLRVKILSEAAKHVPETGFTNAALAASLKSIGVEDITDRTLSQIFNRGFPIALVEHIVKSTNLHVQRELESVFSKDAIIKSIDSNVDAFVQNRLLLPTEKNVVEKAILSKLELLIPLAEHWPSAVALEYLPANLPYTVMNLAEFVDTTVYYMERATTLGELLDPARRILRSKAMASRIRSGEVDSNGASPTSEFLKSFLKGISLSSGPYAGPSALNLGWYCKRAQVAIVYGAVTTSLLGDVSQNAADTRSLTKAAVETVF", "soluble on expression in E. coli": "not soluble"}, {"sequence": "MAHHHHHHMCSDVKFSERLTTSPAVVTGFLSPTLRKVMKATMKNSDFNDNTNNSNNMNMFQNLPATLELNPSHTIVTSIYHLKNTNQEVAKLLVQQLYDNACIAAGILEDPRSLLSKLNELLLLTARYAYHYEKKDIQENTKDQPIDVKDNTMAIDNIVNTKENNTNDDSVMKEAQSSNL", "soluble on expression in E. coli": "soluble"}, {"sequence": "MAHHHHHHMCSVLILASTCRRRFSNVHLTPAGTVLNSNSALISRRINRRKMKNCNNNDLLKVLKMETTYNELPAHNLLMSSKNDINKLFDYINKNEELSKLMNSCGTYVYLKYLGVVIFSIKENVQISHLSEFIQYLLNKNVFGSSTFTKIRKSKDSDTYNAPFIICLVLIVRVCLSPFLNNILYCHMQNEIITFIIFKPTKKSVHCFFSFFTILL", "soluble on expression in E. coli": "soluble"}, {"sequence": "MAHHHHHHMCVRTWQKCPGLVSVKHRCIGGTLTNDGLRTEQYSHAPGPVRYFFLCLYDALLAHQQRLDQYWLNPLYQLNVHSFPFVYLYIVHFNTKIIFSFSFKANKNFFPLRLTTGKNCRKTKSTCRQPPTPNIDDRSSL", "soluble on expression in E. coli": "not soluble"}, {"sequence": "MAHHHHHHMDAKQRESIEELKEQLRGLEEALLIQEKVMQQRNQVILSLSSSIADAENSIGESKEGLKKAEESLEEAIRSNTIAHTERLVLQEEATKYSERDEYLNELSEADAGLNAAEAQVKDLVIQINDLSREPQNKNALQRVTLVRLISMLNDLHASLKHSVQCVPHEEDNRAREVLKAIRELSRERERTFGHCLRKKREIMGVMELKKQRTDEILLESKKNVALLRDIHEKTTLDAVEKIQKERNLLQEELENIKRANQLLQDTLGSTECLCDTKGSDSASTPASISMNVASCQSTDVQKEREHLREYLRHLEEKVTQLRSTTDELRESVGSQMEKNTLKLKDLRHQVRSKQNETHRLENENRKLKSLCDSLASTLGPK", "soluble on expression in E. coli": "not soluble"}, {"sequence": "MAHHHHHHMDAPEWTKDAQSIQGAKDYVRQASIVDFYEMICRNIFTHHPANLTEFCLRIVKDIMNGTEITSAADFQPKRIDDNKYMRDMAMCSFLDGWILELLRERPGTHLERMEFHKRYLEGLQSESDTGK", "soluble on expression in E. coli": "soluble"}, {"sequence": "MAHHHHHHMDEKPRLIEHTSACRGTADVLILSGFPWYVTEGQVRKYLTEIHPSNIAPLTVRLYTNPANGSSRGICFVEYCPKQSNTGGASQGIKNEFPERKQKGEAEDIAALMKLRIEATAYERHYIRVLLYRLTNRNWDRGGRLPDLPTDPPPLATSRGGVLEGYGDEGFTVRCSALLGLANTVTPNGIASMQTLRKRFREEAAKAAMPNKSDEGYPGSSAARQ", "soluble on expression in E. coli": "not soluble"}, {"sequence": "MAHHHHHHMDGEAAAPTGGAGPKYIVEHLDELEEWSILEYIHICETVKDQNVIFTKFDRPFGEVSEEHNPTCYKQPISELKDKFEWKKICLLDMKATSTLTCSDREHLDYLLFGGILGNVPSDDRTSILRKCQFVISRNLGDMQMTTNTAVLVCHIILDKHVEFKDIPFVDSPEIPLRNEKETMVLPFRFVSKSFFTGMEGDRNVPVLPRNFTEYLIGLGDQRVGDLDEFLSGVVV", "soluble on expression in E. coli": "soluble"}, {"sequence": "MAHHHHHHMDGGVVKTILRKGEGGEENAPKKGNEVTVHYVGKLESSGKVFDSSRERNVPFKFHLGQGEVIKGWDICVASMTKNEKCSVRLDSKYGYGEEGCGESIPGNSVLIFEIELISFREAKKSIYDYTNEEKIQAAFDLKEEGNDFFKKNEIDEAISKYKEALDLFIHAEDWDGDLAEKKKNIEIICNLNLSTCYNKSKDFPNAIAHASKVLKIEKNNVKALYKLGVANMHFGFLEVAKENLYKAASLSPNNVEIRNSYDACLSKLKEARKRDKLTFGGMFDKGI", "soluble on expression in E. coli": "not soluble"}, {"sequence": "MAHHHHHHMDMNFGFCNDAFFEQGNRSTDKEDIEELKKGESNEITKKGNNELGEEKELPKELCVPVTIKLLLSKMMSHEEFKIHDFQISGIIVFGKVCRIKELASAIIFEICDYTGNIEAKYNKDAKNEKVKDHIEGIKVNDHIKVVGVVYSPESKTEQIQISISYINKVEDWVSYFSYFTSDVIYCYLKLLKLKNIYTPNGVNNEDKPWSHVTLDTYYNQLDDIDTDIIKYLHTTSEKYANQQDIFEHLKKYHSEMNIKKSLTKLIEQYDLAQYEDIISIP", "soluble on expression in E. coli": "not soluble"}, {"sequence": "MAHHHHHHMDNSHFSKMLKECKIIGKSFTSTDADLLFSKVKAKEARKISFTEFKEKAIPEIAAKMKKTPADIEAMIANAAPKSSGTKADTVRFHDDKSTYTGAAKQGGPTNVDRNAGSLAGVVDRRQETINNRGFTA", "soluble on expression in E. coli": "soluble"}, {"sequence": "MAHHHHHHMDSGTKREFGRNVTNVDDFKGAKLTPSKIHHQKFEGSDKRHGVRLADEGKWCIHKRSRVEPVAAGPSRERSVEETKSTTTCCSLPLPSQETNLCSIRGDSNTCSSDDSSIERYFDESCEAIEAPTAPAPRPPSPTWNNALRTVSGTAAAVLQDLKNAASLQTDQSSSSEVLPSPPVIPLIL", "soluble on expression in E. coli": "not soluble"}, {"sequence": "MAHHHHHHMEGFPLGLAVIIDPPREKESGAMVEAHAARDNGSAAGSLSNGETNTADTGGDAYSGHSINNREQVPIALHNVCPTRFLWSRYEENGGMLLHMPRSKVCREHRKGLCRFGNECSFLHVCRQMPIGSGDEELLSHSRTPLRHSTVQGSMQDFSHPPSFATASGSLCHHAHSQSYSQANLQHFQGSTVMSQNGSYMDGSLGNSQTGSRPHLSRAPTASESYGGHQPLLRPLGGVQNSHSSVAARGSFSHNPYAEASSFQS", "soluble on expression in E. coli": "not soluble"}, {"sequence": "MAHHHHHHMEHQYFFIEATWLEAAAAGICSRNGIILKDAIAKAEKGIPVQIKNDSAPTMRSLIQTTHASLEQACERYLHQNARNLRLTRASKPTPAVEALNEAERASCRELVVRIAITGALTQYQRCTRKCILQDSSSLSPSLSHPAVSASKTVQGNGVTDKQLERSFQTTLLKGLLYAFESFQECHSMNRDHYPPRVDSNTPGTVGWDTLVLLYLVHRIPQVARHASGSAIDDCIGQVIRTWRKLLVALQSVDAQEAPEHSRRRGALSLVNGLLIILFQRYNTHQCAVLLGAVEHAETVAESSKEPARSILHPSRHMVSEVVTYHYYQGRMRLYERKLDEAHRILRIAYTLLPPAGFGNEPQRLNKERVRFFLSVAGVANGRRIPDEILRADEDLLPRLFGSLTAAIERGDPVCFSAALDSHASTFHRRGVYLILQQAKILCYLMVVARVHAAMAALSDVDNSRITIPTLLAAYTYITSEKPQSGKSSAESKKRSRDDEAVSPVSEARMAESVMDEDRMALWIAKLIARGYVRGYYSHEHKTLVLSKKVPFPLLQEEV", "soluble on expression in E. coli": "not soluble"}, {"sequence": "MAHHHHHHMERMSLAVVRQLDADHERGGIWYLSGHRDHVLSIAASSHGVFATCDAKGLGLLWKHDTSHSNSDPSHVSRISSEGPAIVAACFPSSTRLCTAQGNGRVGVWDIEASTEVQSLSRLPSRGKSVNWPVINALSAWESDLVAYGGDDGYLVLSSLAVRNPVVSVNLRVPITSVAAAATSLLVGDVLGNIRCFDTRTFKSLYCFQGHRGVVTSVSVKEDASLAVSYGMDDSLALWNALPFSLTTEDRLIHRGEFHQGDTKTLLRCDWATSGAALVPVSDGRVVYLSAPTLDGIRTILPGRHRREPAQCAAFIGDGYAVSSAETEVILQRI", "soluble on expression in E. coli": "not soluble"}, {"sequence": "MAHHHHHHMERRSEWVASLRSTLPQFSKRSAAPLERGNAAAILGPAPRRTLDKALSSHNTTSSLLLPSEWCEQATQRLITTLHGIVPPLQVQQTDYFLCSLIHPSYVQASTMRCESEALRRRVQQELRRTVCMPLELTMTGSKSLRLLRELTHYVEQGAAAAATSARARATLPAAPVAGRSEARDPSYGPSSWSSYPLDASWPELHSADSTAFVQAFQRAGLDSLVLYDKSFFAASSTLTDNISGAGSAEVSLAAFTALCGSIELVSGWCSLLQFVDRVASEQRGLERNTDGHE", "soluble on expression in E. coli": "not soluble"}, {"sequence": "MAHHHHHHMESAIGLSVPLYQPHAPAPGAVIDPDMVEDHVSFLRTVRAFHDYKRQALAAREMRCTNFRKLQDQHRHLLCIDLDKILEKYLECIKVNSAFFDAICEASEELFDSYWPEGTTVFMKEVPPPTPLDMNKVFSTLRQFVRDWSAEGVAERDCVYKPILDTLDRCFPNRSERENVRVLIPGAGLCRLSVELALHGFFAQANEFSYHMLIAGHYIQNHVFESCQHKIYPYSDSTCNLVNRADQFAEVQIPDLCASEAIDALRDKGLSFGQLSMVAGDFTEVYAKPHQHKTWSVVATCFFIDTAHNIIEYLVIIYNLLVPGGYWVNVGPLLYHFADSADDMSIELSLGEVLTVAQRIGFVLNGPPSFIDTTYTNNQRSMKQLVYRCAFFVLQRPLADRQTEQMDRNVEAKVT", "soluble on expression in E. coli": "not soluble"}, {"sequence": "MAHHHHHHMETENVPLENEENQNENYEQEENTLAQEAEIVLITTSLGGIKSSFFSSLRAHQLLNCKKYIYFSIDANRDTSSAKNLKDIELFNKWKKGMILLSNENGIVLPQILIDGVPLGNDVTLQNLEDEGILDYIIARLKCPNCLIDKSNIEERCPGCKKYYVTLITDDLIQNDSVIRILQGEPYKEPENE", "soluble on expression in E. coli": "soluble"}, {"sequence": "MAHHHHHHMEWVELHDVDPETMSLELPPDMLFGPLEFPKQMRFLLAALRADNELADGYLARVIIDRMDLSLDPPILSEGDFLAAGGKELLDFSVEDFTGTKSRAQRKHIFFQPDQFLQFINIIAAYPTLTEYFVNEKDGVELVFQAYRHSKNPYACVMAMRSLTLFSFTQAVDGTVERRILQSNGVKTIVDAYKQSTGDPTETRFPTLLLSSIMRHYPKEGGKEFIDADGVEAVVNNLNIARYKGIPQHIRVLHDAQRLPKQSIGKKSVDARLEEADFLGVAMGLLDTFPEFYEATGDLLKLLTRVVPAHADPLELLEYRAMPILSKYYVRWREDQSFQTDGTRTLVAKLFELMLNDKTCQRCYDPSVASYELLECLRTAKLAVKDEQEKRVMRFPDPQRQPASAAA", "soluble on expression in E. coli": "soluble"}, {"sequence": "MAHHHHHHMEYAQKSARLPRSAEEKEQWKRVIVILEHCPLQTIQTDRGFELLSDRHRSYHARHNQDPADWRPDVVHQCLLHLQDSPLNRAGMLEVFLRTKKQVCIAVDPRLRVPRNVRLFEKMMVSLLFKLKVRASTGYLSLLRVVGNPITDHIPAGTRLYRVEKDGDLIDPFTFCASCGYAADVLDAQRTDRKISLARRRLTSSTSGTLEETTAEAGTEEFAKAQRKAAERRQFQPFAFIIGGMSRGDVSVDYARPGEVSSIRLGDRGMSAAAVISTLLHGFEEEWLREDNEAC", "soluble on expression in E. coli": "soluble"}, {"sequence": "MAHHHHHHMFPQGLIDQWLSKSREGRRSVREDRKATPAILDNIARLEEYCRSHPYDVFCASTLQHPPFALHALESEAAEQQRLAQPPPVFAATVPSPSAHTTASNEVRGGVCGRYADGDESRASVTAARQHLHNVAARLAAYLQSSGAVRSSASRHEEESQCTVVADFFVHLLSEAAVAAVYRQGIAAQVEAEERAAFQHRQSQRRLQLRVDSKHDGTLQRLELSDSKGADTEAVHEVEGLTVVRPIADYRRLSQGLASLWSLLAQTQRRGGLAVGGPSKERSRDSTADTDSVNDNDNLWTRVRVDCLRHWLGDRALPPPPPLPGTAALGETQRKTEASSPAMPGGAWWSRPLYISERDVEFALRKVLADVTASAAS", "soluble on expression in E. coli": "soluble"}, {"sequence": "MAHHHHHHMGGPPRKREREGEALKPKSKEEQLPIKNECTLDRREGKQIVAEKWSEVVVDDNESQERSNESVSESQVYDTEEELLAAGEDLSGDALKDFLRKNFVDFIDEKVARVGDLDLMN", "soluble on expression in E. coli": "not soluble"}]}]}
